Test results reported in publication PMC5885141 (Molecular imaging and biology : MIB : the official …, 2014).
Read-outs that look alike come from different tables or passages of the source. IR800 = IRDye800CW

Legend:
[1] = target: T1, gastrin-releasing peptide receptor (human, UniProt P30550 1-384); assay: radioligand binding
[2] = target: T1, gastrin-releasing peptide receptor; assay: radioligand binding; remark: listed apart in the source

T1 sequence (P30550 whole entry): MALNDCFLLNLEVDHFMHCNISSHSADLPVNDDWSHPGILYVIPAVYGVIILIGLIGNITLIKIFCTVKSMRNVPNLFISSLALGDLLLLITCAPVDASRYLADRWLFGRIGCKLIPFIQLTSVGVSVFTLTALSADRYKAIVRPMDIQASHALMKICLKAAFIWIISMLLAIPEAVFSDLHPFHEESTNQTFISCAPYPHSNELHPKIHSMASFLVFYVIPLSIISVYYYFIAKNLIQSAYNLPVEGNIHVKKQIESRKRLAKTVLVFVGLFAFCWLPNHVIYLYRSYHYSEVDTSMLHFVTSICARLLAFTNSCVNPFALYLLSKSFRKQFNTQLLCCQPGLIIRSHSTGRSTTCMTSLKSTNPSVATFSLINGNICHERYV

IR800-GSGQWAVGHLM-NH2 [IR800-GSG-t-BBN]
IC50 [1]: 56 nM | IC50 [2]: 57.4 nM
